Among the data in the RNAGym collection of RNA variant scans (doi:10.7554/elife.80360) are self-cleavage values, retold here.

B1: Hammerhead Ribozyme (parent)
chain: ACCGGAUGUGCUUUCCGGUCUGAUGAGUCCGUGAGGACGAAACAG

In the data set the parent is B1. The data set can be described thus: self-cleavage, relative activity (ratio to wild type); higher = more cleavage; co-transcriptional.
Regarding ACCGGAUGUGCUUUCCGGUGUGAUGAGUCCGUGAAGACGAAACAG, the self-cleavage was found to be 0.287.

Regarding ACCGGAUGUGCUUUCCGGUGUGAUGAGUCCGUGACGACGAAACAG, the self-cleavage is 0.361.

For ACCGGAUGUGCUUUCCGGUGUGAUGAGUCCGUGAUGACGAAACAG, the self-cleavage was 0.353.

ACCGGAUGUGCUUUCCGGUUUGAUGAGUCCGUGAGGACGAAACAG: the self-cleavage was found to be 0.697.

Consider ACCGGAUGUGCUUUCCGGUGUGAUGAGUCCGUGAGGACGAAACAG, for which the self-cleavage amounted to 0.341.

As to ACCGGAUGUGCUUUCCGGUUUGAUGAGUCCGUGAGGACGAAUCAG, the self-cleavage stood at 0.322.

ACCGGAUGUGCUUUCCGGUUUGAUGAGUCCGUGAGGACGAACCAG: the self-cleavage came to 0.323.

As to ACCGGAUGUGCUUUCCGGUUUGAUGAGUCCGUGAGGACGAAGCAG, the self-cleavage amounted to 0.258.

As to ACCGGAUGUGCUUUCCGGUAGGAUGAGUCCGUGAGGACGAAACAG, the self-cleavage was found to be 0.326.

As for ACCGGAUGUGCUUUCCGGUACGAUGAGUCCGUGAGGACGAAACAG, the self-cleavage amounted to 0.394.

Turning to ACCGGAUGUGCUUUCCGGUGUGAUGAGUCCGUGAGGACGAUACAG, the self-cleavage stood at 0.371.

Regarding ACCGGAUGUGCUUUCCGGUGUGAUGAGUCCGUGAGGACGAGACAG, the self-cleavage was found to be 0.332.

For the variant ACCGGAUGUGCUUUCCGGUGUGAUGAGUCCGUGAGGACGACACAG, the self-cleavage is 0.329.

Turning to ACCGGAUGUGCUUUCCGGUGUGUUGAGUCCGUGAGGACGAAACAG, the self-cleavage worked out at 0.317.

On to ACCGGAUGUGCUUUCCGGUGUGCUGAGUCCGUGAGGACGAAACAG, for which the self-cleavage was 0.271.

Regarding ACCGGAUGUGCUUUCCGGUGUGGUGAGUCCGUGAGGACGAAACAG, the self-cleavage amounted to 0.386.

For ACCGGAUGUGCUUUCCGGUUUGAUGAGUCCGUGAGGACGAUACAG, the self-cleavage was found to be 0.37.

As for ACCGGAUGUGCUUUCCGGUUUGAUGAGUCCGUGAGGACGAGACAG, the self-cleavage turned out to be 0.349.

Regarding ACCGGAUGUGCUUUCCGGUUUGAUGAGUCCGUGAGGACGACACAG, the self-cleavage came to 0.373.

Consider ACCGGAUGUGCUUUCCGGUGUGAUGAGUACGUGAGGACGAAACAG, for which the self-cleavage turned out to be 0.312.

With ACCGGAUGUGCUUUCCGGUGUGAUGAGUGCGUGAGGACGAAACAG, the self-cleavage turned out to be 0.35.

Take ACCGGAUGUGCUUUCCGGUGUGAUGAGUUCGUGAGGACGAAACAG: the self-cleavage stood at 0.336.

On to ACCGGAUGUGCUUUCCGGUGUGAUGAAUCCGUGAGGACGAAACAG, for which the self-cleavage was 0.381.

As to ACCGGAUGUGCUUUCCGGUGUGAUGACUCCGUGAGGACGAAACAG, the self-cleavage was determined as 0.252.

For ACCGGAUGUGCUUUCCGGUGUGAUGAUUCCGUGAGGACGAAACAG, the self-cleavage amounted to 0.265.

Regarding ACCGGAUGUGCUUUCCGGUGUGAUGAGACCGUGAGGACGAAACAG, the self-cleavage was determined as 0.268.

In the case of ACCGGAUGUGCUUUCCGGUGUGAUGAGCCCGUGAGGACGAAACAG, the self-cleavage was found to be 0.261.

As to ACCGGAUGUGCUUUCCGGUGUGAUGAGGCCGUGAGGACGAAACAG, the self-cleavage was determined as 0.323.

On to ACCGGAUGUGCUUUCCGGUAUGAUGAGCCCGUGAGGACGAAACAG, for which the self-cleavage is 0.487.

As for ACCGGAUGUGCUUUCCGGUAUGAUGAGACCGUGAGGACGAAACAG, the self-cleavage was determined as 0.435.

As to ACCGGAUGUGCUUUCCGGUAUGAUGAGGCCGUGAGGACGAAACAG, the self-cleavage turned out to be 0.552.

Regarding ACCGGAUGUGCUUUCCGGUGUGAUGAGUCCGUGUGGACGAAACAG, the self-cleavage was determined as 0.383.

With ACCGGAUGUGCUUUCCGGUGUGAUGAGUCCGUGGGGACGAAACAG, the self-cleavage was 0.245.

Take ACCGGAUGUGCUUUCCGGUGUGAUGAGUCCGUGCGGACGAAACAG: the self-cleavage was determined as 0.365.

On to ACCGGAUGUGCUUUCCGGUGUAAUGAGUCCGUGAGGACGAAACAG, for which the self-cleavage stood at 0.252.

In the case of ACCGGAUGUGCUUUCCGGUGUUAUGAGUCCGUGAGGACGAAACAG, the self-cleavage was found to be 0.343.

As to ACCGGAUGUGCUUUCCGGUGUCAUGAGUCCGUGAGGACGAAACAG, the self-cleavage was 0.43.

For the variant ACCGGAUGUGCUUUCCGGUGUGAUGAGUCCGUGAGGACAAAACAG, the self-cleavage was 0.34.

Consider ACCGGAUGUGCUUUCCGGUGUGAUGAGUCCGUGAGGACUAAACAG, for which the self-cleavage was 0.316.

With ACCGGAUGUGCUUUCCGGUGUGAUGAGUCCGUGAGGACCAAACAG, the self-cleavage is 0.321.

As for ACCGGAUGUGCUUUCCGGUGUGAGGAGUCCGUGAGGACGAAACAG, the self-cleavage is 0.353.

In the case of ACCGGAUGUGCUUUCCGGUGUGACGAGUCCGUGAGGACGAAACAG, the self-cleavage came out at 0.302.

On to ACCGGAUGUGCUUUCCGGUGUGAAGAGUCCGUGAGGACGAAACAG, for which the self-cleavage was determined as 0.399.

ACCGGAUGUGCUUUCCGGUGUGAUGAGUCCGUGAGGAAGAAACAG: the self-cleavage came out at 0.241.

Consider ACCGGAUGUGCUUUCCGGUGUGAUGAGUCCGUGAGGAGGAAACAG, for which the self-cleavage came out at 0.239.

On to ACCGGAUGUGCUUUCCGGUGUGAUGAGUCCGUGAGGAUGAAACAG, for which the self-cleavage turned out to be 0.38.

Turning to ACCGGAUGUGCUUUCCGGUGUGAUGAGUCCGUCAGGACGAAACAG, the self-cleavage is 0.327.

Turning to ACCGGAUGUGCUUUCCGGUGUGAUGAGUCCGUUAGGACGAAACAG, the self-cleavage is 0.367.

Take ACCGGAUGUGCUUUCCGGUGUGAUGAGUCCGUAAGGACGAAACAG: the self-cleavage was found to be 0.333.

As to ACCGGAUGUGCUUUCCGGUGUGAUUAGUCCGUGAGGACGAAACAG, the self-cleavage is 0.313.

ACCGGAUGUGCUUUCCGGUGUGAUAAGUCCGUGAGGACGAAACAG: the self-cleavage was 0.314.

With ACCGGAUGUGCUUUCCGGUGUGAUCAGUCCGUGAGGACGAAACAG, the self-cleavage came out at 0.503.

On to ACCGGAUGUGCUUUCCGGUGUGAUGAGUCCGUGAGGACGAAACAU, for which the self-cleavage came to 0.316.

Consider ACCGGAUGUGCUUUCCGGUGUGAUGAGUCCGUGAGGACGAAACAA, for which the self-cleavage was 0.356.

On to ACCGGAUGUGCUUUCCGGUGUGAUGAGUCCGUGAGGACGAAACAC, for which the self-cleavage is 0.302.

For the variant ACCGGAUGUGCUUUCCGGUAUGAUGAGUCCGAGAGGACGAAACAG, the self-cleavage was found to be 0.471.

Regarding ACCGGAUGUGCUUUCCGGUAUGAUGAGUCCGCGAGGACGAAACAG, the self-cleavage is 0.541.
